Source: article PMC8602292, “Acyl carrier protein promotes MukBEF action in Escherichia coli chromosome organization-segregation” (Nature Communications, 2021)

T1: MukB^K1114E (Escherichia coli, UniProt P22523 1-1486, K1114E)
T1 construct: E. coli MukB with K1114E; Mutant of the whole MukB-His as far as the text tells; source: E. coli FL01 (mukB 3xFLAG C3013I), purified (TALON, HiTrap Heparin, Superdex 200); not shown: His tag, C-terminal, kept
T1 sequence (looked up): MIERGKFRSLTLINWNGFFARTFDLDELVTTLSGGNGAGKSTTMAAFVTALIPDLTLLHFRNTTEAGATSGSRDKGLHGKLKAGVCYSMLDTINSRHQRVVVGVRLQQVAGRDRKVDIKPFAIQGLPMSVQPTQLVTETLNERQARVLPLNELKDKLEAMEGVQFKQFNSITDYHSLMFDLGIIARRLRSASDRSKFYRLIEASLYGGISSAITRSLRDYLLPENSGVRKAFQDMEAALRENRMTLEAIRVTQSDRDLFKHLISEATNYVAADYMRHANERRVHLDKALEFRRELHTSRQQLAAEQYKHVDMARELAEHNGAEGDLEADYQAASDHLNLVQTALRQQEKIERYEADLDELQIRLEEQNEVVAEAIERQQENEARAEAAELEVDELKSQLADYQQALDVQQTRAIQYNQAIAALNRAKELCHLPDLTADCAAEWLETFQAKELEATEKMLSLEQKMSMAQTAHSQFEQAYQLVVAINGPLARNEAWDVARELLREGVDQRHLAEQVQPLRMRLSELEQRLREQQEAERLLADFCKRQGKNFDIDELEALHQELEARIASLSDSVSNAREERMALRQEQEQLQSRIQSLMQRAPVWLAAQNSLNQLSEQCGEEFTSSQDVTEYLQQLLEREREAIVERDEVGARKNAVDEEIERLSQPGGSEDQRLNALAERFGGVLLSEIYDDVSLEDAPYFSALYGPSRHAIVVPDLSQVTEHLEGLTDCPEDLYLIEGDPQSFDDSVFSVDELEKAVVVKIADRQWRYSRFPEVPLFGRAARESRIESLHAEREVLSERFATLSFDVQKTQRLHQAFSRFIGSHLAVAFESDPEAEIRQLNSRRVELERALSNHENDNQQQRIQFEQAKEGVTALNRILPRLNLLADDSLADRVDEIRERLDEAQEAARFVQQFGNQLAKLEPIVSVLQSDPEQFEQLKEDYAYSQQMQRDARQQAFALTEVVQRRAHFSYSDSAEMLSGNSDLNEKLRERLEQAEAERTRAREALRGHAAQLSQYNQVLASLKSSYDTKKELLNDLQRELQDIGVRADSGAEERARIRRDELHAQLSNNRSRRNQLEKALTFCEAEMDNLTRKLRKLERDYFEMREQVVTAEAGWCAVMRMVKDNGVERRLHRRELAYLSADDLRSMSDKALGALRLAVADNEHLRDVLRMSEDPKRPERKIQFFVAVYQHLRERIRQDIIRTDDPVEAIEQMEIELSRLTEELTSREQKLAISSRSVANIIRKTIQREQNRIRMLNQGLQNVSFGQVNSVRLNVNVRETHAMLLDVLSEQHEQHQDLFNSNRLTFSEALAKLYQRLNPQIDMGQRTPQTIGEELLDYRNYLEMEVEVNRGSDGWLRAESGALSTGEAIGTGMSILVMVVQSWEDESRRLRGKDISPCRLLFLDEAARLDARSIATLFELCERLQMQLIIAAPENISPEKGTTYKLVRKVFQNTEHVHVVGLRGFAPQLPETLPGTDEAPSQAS


Biological target: T1, MukB^K1114E
Assay: native gel or EMSA; BN-PAGE; MukB or MukB^HN (0-4.5 μM) with MukF (1.5 μM), MukE (3 μM) and AcpP as indicated or none; 1 mM DTT, 1 mM MgCl2, 30 min at 22 °C; 3-12% native Bis-Tris gels; AMPPNP in some samples
Conditions: both partners purified

Row | binding result | Binder
1 | binds | MukE (MukE-His) (natural protein, Escherichia coli, UniProt P22524 1-234, looked up, MukE, the KITE protein of Escherichia coli MukBEF; The end of the tag is read from the printed name 'MukE-His'; also called KITE protein MukE; source: E. coli C3013I (NEB), pET vector, purified (TALON, HiTrap DEAE FF, Superdex 200)) MSSTNIEQVMPVKLAQALANPLFPALDSALRSGRHIGLDELDNHAFLMDFQEYLEEFYARYNVELIRAPEGFFYLRPRSTTLIPRSVLSELDMMVGKILCYLYLSPERLANEGIFTQQELYDELLTLADEAKLLKLVNNRSTGSDVDRQKLQEKVRSSLNRLRRLGMVWFMGHDSSKFRITESVFRFGADVRAGDDPREAQRRLIRDGEAMPIENHLQLNDETEENQPDSGEEE
2 | binds | MukF (His-MukF) (natural protein, Escherichia coli, UniProt P60293 1-440, looked up, MukF, the kleisin of Escherichia coli MukBEF; The end of the tag is read from the printed name 'His-MukF'; also called kleisin MukF; source: E. coli C3013I (NEB), pET vector, purified (TALON, HiTrap DEAE FF, Superdex 200)) MSEFSQTVPELVAWARKNDFSISLPVDRLSFLLAVATLNGERLDGEMSEGELVDAFRHVSDAFEQTSETIGVRANNAINDMVRQRLLNRFTSEQAEGNAIYRLTPLGIGITDYYIRQREFSTLRLSMQLSIVAGELKRAADAAEEGGDEFHWHRNVYAPLKYSVAEIFDSIDLTQRLMDEQQQQVKDDIAQLLNKDWRAAISSCELLLSETSGTLRELQDTLEAAGDKLQANLLRIQDATMTHDDLHFVDRLVFDLQSKLDRIISWGQQSIDLWIGYDRHVHKFIRTAIDMDKNRVFAQRLRQSVQTYFDEPWALTYANADRLLDMRDEEMALRDEEVTGELPEDLEYEEFNEIREQLAAIIEEQLAVYKTRQVPLDLGLVVREYLSQYPRARHFDVARIVIDQAVRLGVAQADFTGLPAKWQPINDYGAKVQAHVIDKY
